Assay results: paper PMC8325345

Tests used:
ecHrpA1-783,E675A = biological target: T1, ecHrpA1-783,E675A (Escherichia coli DH5-alpha, UniProt P43329 1-783, E675A); experiment: fluorescence anisotropy
T1 sequence: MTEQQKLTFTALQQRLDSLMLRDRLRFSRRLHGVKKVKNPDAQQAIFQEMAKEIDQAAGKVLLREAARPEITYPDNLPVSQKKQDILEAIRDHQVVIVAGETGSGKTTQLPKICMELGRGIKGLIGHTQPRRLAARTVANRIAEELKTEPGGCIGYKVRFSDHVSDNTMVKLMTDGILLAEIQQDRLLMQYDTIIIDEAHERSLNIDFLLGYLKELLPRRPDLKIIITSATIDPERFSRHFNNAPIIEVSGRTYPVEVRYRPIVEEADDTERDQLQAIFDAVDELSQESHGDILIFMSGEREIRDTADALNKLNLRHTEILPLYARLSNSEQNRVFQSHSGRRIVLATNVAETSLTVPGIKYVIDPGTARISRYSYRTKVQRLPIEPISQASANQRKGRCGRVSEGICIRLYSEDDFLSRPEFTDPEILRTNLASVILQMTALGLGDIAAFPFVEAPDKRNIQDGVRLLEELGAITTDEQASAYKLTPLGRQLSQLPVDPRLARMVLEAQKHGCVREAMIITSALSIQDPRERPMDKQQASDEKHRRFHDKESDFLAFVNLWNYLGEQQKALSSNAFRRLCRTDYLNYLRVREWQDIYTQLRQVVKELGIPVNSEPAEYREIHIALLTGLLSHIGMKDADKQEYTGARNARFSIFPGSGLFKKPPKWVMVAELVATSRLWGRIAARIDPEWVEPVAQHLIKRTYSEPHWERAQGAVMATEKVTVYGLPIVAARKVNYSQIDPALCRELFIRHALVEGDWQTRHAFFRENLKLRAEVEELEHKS

ecHrpA FL = biological target: T2, ecHrpA FL (Escherichia coli DH5-alpha, UniProt P43329 1-1300); experiment: fluorescence anisotropy
T2 sequence: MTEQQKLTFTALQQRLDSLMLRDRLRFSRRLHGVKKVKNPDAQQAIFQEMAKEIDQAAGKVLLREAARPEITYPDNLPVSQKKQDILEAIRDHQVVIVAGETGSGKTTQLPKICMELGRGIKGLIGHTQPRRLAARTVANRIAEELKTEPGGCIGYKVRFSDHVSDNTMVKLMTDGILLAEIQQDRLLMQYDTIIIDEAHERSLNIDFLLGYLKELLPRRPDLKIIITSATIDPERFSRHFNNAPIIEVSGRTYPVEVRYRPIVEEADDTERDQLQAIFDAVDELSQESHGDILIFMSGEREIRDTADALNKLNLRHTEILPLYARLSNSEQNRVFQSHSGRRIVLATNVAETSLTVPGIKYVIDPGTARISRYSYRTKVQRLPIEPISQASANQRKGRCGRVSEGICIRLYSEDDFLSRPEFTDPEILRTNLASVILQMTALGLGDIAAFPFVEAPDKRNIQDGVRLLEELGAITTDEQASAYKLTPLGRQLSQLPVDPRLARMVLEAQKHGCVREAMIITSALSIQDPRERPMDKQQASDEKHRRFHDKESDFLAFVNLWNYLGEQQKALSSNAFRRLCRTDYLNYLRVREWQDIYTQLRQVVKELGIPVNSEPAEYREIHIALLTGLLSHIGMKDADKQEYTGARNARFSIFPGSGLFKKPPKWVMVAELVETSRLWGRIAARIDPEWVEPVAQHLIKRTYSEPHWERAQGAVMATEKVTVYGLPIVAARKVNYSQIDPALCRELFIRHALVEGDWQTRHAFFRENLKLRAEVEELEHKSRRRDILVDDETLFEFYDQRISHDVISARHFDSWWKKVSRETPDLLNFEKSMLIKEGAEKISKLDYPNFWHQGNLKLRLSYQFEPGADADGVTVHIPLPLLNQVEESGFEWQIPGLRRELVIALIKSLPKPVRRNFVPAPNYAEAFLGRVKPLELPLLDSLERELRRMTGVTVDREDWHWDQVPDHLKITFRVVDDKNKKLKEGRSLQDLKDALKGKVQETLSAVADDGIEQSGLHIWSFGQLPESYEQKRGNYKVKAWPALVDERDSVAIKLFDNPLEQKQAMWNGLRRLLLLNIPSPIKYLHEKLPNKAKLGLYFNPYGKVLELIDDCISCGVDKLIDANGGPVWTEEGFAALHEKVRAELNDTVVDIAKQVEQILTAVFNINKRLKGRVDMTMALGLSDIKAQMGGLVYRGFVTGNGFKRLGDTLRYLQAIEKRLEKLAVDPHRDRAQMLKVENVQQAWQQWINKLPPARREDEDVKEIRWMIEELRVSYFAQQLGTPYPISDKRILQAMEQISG

GCUGCCAGACCAAAU (ssRNA) [FAM-RNASS15]
binding signal (ecHrpA1-783,E675A): ~2.2 fold lower RNA binding than ecHrpA1-783

TATAAACCAGACCGTC (ssDNA) [FAM-DNASS16]
binding result (ecHrpA FL): no binding

B1: FAM-RNABlunt (dsRNA)
RNA 1: GCUGCCAGACCAAAU
RNA 2: AUUUGGUCUGGCAGC
binding result (ecHrpA FL): no binding
